The values that follow come from the RNAGym collection of RNA variant scans (doi:10.1093/nar/gkz1192).

The chains are these.
B1: CPEB3 Ribozyme (parent)
chain: UAACAGGGGGCCACAGCAGAAGCGUUCACGUCGCAGCCCCUGUCAGAUUCUGGUGAAUCUGCGAAUUCUGCUGUAUAUCUC

The data set covers variants of B1. The data set is described as follows: self-cleavage, relative activity (ratio to wild type); higher = more cleavage; in vitro, sequencing. The method in brief: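 CPEB3 self-cleaving ribozyme mutant libraries were made by rounds of error-prone PCR, barcoded, and transcribed in vitro with T7 RNA polymerase for 5 hours at 37°C. Cleavage occurred during transcription and a 15 min DNase I step before EDTA stop. RNAs were reverse transcribed with template switching and Illumina-sequenced, with DNA sequencing mapping barcodes to variants. Relative activity is the variant's cleaved/total read fraction divided by wild type's (minimum 5 reads), averaged across three batches.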
UAACAGGGGGCCACAGCAGGAGCGUUCACGUCGCAGCCCCUGUCAGAUUCUGGUGAAUCUGCGUAUUCUGCUGUAUAUCUC: the self-cleavage was 0.31.
On to UAACAGGGGGCCACAGCAGAAGCGUUCACGUCGCAGCCCCAGUCAGAUUCUGGUGAAUCUGCGAAUUCUGCUGAAUAUCUC, for which the self-cleavage came out at 0.29.
As for UAACAGGGGGCUACAGCAGAAGCGUUCACGUCGCAGCCCCUGUCAGCUUCUGGUGAAUCUGCGAAUUCUGCUGUAUAUCUC, the figure is 0.76; as for UAACAGGGGGCCACAGCAGAAGCGUUCACGUCGCAGCCCCUGUCAGAUACUGGUGAAUCUCCGAAUUCUGCUGUAUAUCUC, 0.19; as for UAACAGGGGGCCACAGCAGAGGCGUUCACGUCGCAGCCCCCGUCAGAUUCUGGUGAAUCUGCGAAUUCUGCUGUAUAUCUC, 0.66.
Turning to UAACAGGGGGCCACAGCAGAAGCGUUCGCGUCGCAGCCCCUGUCAGAUUCUGGUGAAUCUGCGAAUUCAGCUGUAUAUCUC, the self-cleavage is 0.29.
As for UAACGGGGGGCCACAGAAGAAGCGUUCACGUCGCAGCCCCUGUCAGAUUCUGGUGAAUCUGCGAAUUCUGCUGUAUAUCUC, the figure is 0.3; as for UAACAGGGGGCCACAGCAGAACCGUUCACGUCGCAGCCCCUGUCAGAUUCUGGUUAAUCUGCGAAUUCUGCUGUAUAUCUC, 0.22.
The same measure for UAACAGGGGGCCACAGUAGAAGCGUUCACGUCGCGGCCCCUGUCAGAUUCUGGUGAAUCUGCGAAUUCUGCUGUAUAUCUC: 1.26.
The same measure for UAACAGGGGGCCACAGCUGAAGCGUUCACGUCGCAGCCCCUGUCAGUUUCUGGUGAAUCUGCGAAUUCUGCUGUAUAUCUC: 0.3.
For UAACAGGGGGCCACAGCAGAAGCGUUCACGUCGCAGCCCCUGUCAGAUUCUGGUGAAUCUUCGAAUUCUGCGGUAUAUCUC, the self-cleavage came to 0.53.
As to UAACAGGGGGCCACAGCAGAAGCGUUCACGUCGCAGCCCCUGUCAGAUUCUGGUGAAUAUGCGAAUUCUGCAGUAUAUCUC, the self-cleavage was determined as 0.13.
As for UAACAGGGGGCCACAGCAGAAGCGUUCACGUCGCAGCCCCUGUCAGUUUCUGGUGAAUCUGCGAUUUCUGCUGUAUAUCUC, the self-cleavage stood at 0.16.
UAACAGGGGGCCACAGCAGAGGCGUUCACGUCGCAGCCCCUGUCAGAUUCUGGUGAAUCUGCGAAUCCUGCUGUAUAUCUC: the self-cleavage stood at 0.24.
For UAACAGGGGGCAACAGCUGAAGCGUUCACGUCGCAGCCCCUGUCAGAUUCUGGUGAAUCUGCGAAUUCUGCUGUAUAUCUC, the self-cleavage came out at 0.48.
Turning to UAACAGGCGGCCACAGCAGAAGCGUUCACGUCGCAGCCCCUGUCAGAUUCUGGUGAACCUGCGAAUUCUGCUGUAUAUCUC, the self-cleavage came to 0.21.
For the variant UAACAGGGGGCCACAGCAGAAGCGUUCACGUCGCAGCCCCUGUCAGAUUCUGGUGAAUCUGCGAAUUCUGCUGCAUAUCUA, the self-cleavage came out at 1.26.
As for UAACAGGGGGGCACAGCAGAAGCGUUCACGUCGCAGCCGCUGUCAGAUUCUGGUGAAUCUGCGAAUUCUGCUGUAUAUCUC, the self-cleavage came out at 0.11.
For the variant UAACAGGGGGCCACAGCAGAAGCGUUCACGUCGAAGCCCCUGUCCGAUUCUGGUGAAUCUGCGAAUUCUGCUGUAUAUCUC, the self-cleavage came to 0.19.
The same measure for UAACAGGGGGCCACAGCAGAAGCGUUCACGCCGCAGCCCCAGUCAGAUUCUGGUGAAUCUGCGAAUUCUGCUGUAUAUCUC: 0.29; for UAACAGGGGGCCACAGCAGACGCGCUCACGUCGCAGCCCCUGUCAGAUUCUGGUGAAUCUGCGAAUUCUGCUGUAUAUCUC: 0.28.
In the case of UAACAGGGGGCCACAGCAGAAGCAUUCACGUCGCAGCCCCUGUCAGAUUCUGGUGAAUCUGCGGAUUCUGCUGUAUAUCUC, the self-cleavage stood at 0.36.
With UAAUAGGGGGCCACAGCAGAAGCGUCCACGUCGCAGCCCCUGUCAGAUUCUGGUGAAUCUGCGAAUUCUGCUGUAUAUCUC, the self-cleavage was determined as 0.88.
On to UAACAGGGGGCCACAGCAGAAGCGUUCACGUCGCAACCCCUGUCUGAUUCUGGUGAAUCUGCGAAUUCUGCUGUAUAUCUC, for which the self-cleavage came out at 0.27.
Turning to UAACAGGGGGCCACAGCAGAGGCGUUCAUGUCGCAGCCCCUGUCAGAUUCUGGUGAAUCUGCGAAUUCUGCUGUAUAUCUC, the self-cleavage is 0.28.
On to UAACUGGGGGCCACAGCAGAAGCGUUCACGUCGCAGCCCCUGUCAGAUUCUGGUGAAUCUGCGAAUUCUGCUGUAUAUCUA, for which the self-cleavage is 1.24.
As for UAACAGGGGGCCACAGCAGAAGCGUUCACGUCGCAGCCCCUGUCAGAUUCAGGUGGAUCUGCGAAUUCUGCUGUAUAUCUC, the figure is 0.5.
Turning to UAACAGGGGGCCACAGCAGAAGCGUUCACGUCGCAGCCCCUGUCAGAUCCGGGUGAAUCUGCGAAUUCUGCUGUAUAUCUC, the self-cleavage is 0.36.
The same measure for UAACAGGGGGCCACAGAAGAAGCGUUCACGUCGCAGCCCCAGUCAGAUUCUGGUGAAUCUGCGAAUUCUGCUGUAUAUCUC: 0.1; for UAACAGGGGGCCACAGCAGAAGUGUUCACGUCGCAGCCCCUGUCAGAUUCUGGUGAAUCUCCGAAUUCUGCUGUAUAUCUC: 0.11.
As for UAACAGGGGGCCACAGCAGAAGCGUUCACGACGCAGCCCCUGUCAGAUUCUGGUGAAUCUCCGAAUUCUGCUGUAUAUCUC, the self-cleavage came to 0.24.
UAACAGGGGGCCACUGCAGAAGCGUUCACGUCGCAGCCCCUGACAGAUUCUGGUGAAUCUGCGAAUUCUGCUGUAUAUCUC: the self-cleavage turned out to be 0.88.
As for UAACAGGGGGCCACAGCAGAGGCGUUCACGUGGCAGCCCCUGUCAGAUUCUGGUGAAUCUGCGAAUUCUGCUGUAUAUCUC, the figure is 0.23; as for UAACAGGGGGCCACAGCAGAAGCGUUCACGUCGCAGCCCCUGUCAGAUUCUGGUGGAUCUGCGGAUUCUGCUGUAUAUCUC, 0.8.
